Source: patent US6887705B1, “Tyrosine phosphorylated cleavage furrow-associated proteins (PSTPIPs)” (Genentech, Inc., priority 1997, dated 2005)

Tests used:
[1] = system: PSTPIP tyrosine phosphorylation; assay: Tyrosine phosphorylation of PSTPIP in COS cells co-transfected with V-src; type: cell-based; settings: COS cells expressing PSTPIP and V-src
Procedure: Baf3 cells were lysed in 1% Triton, 50 mM HEPES. 10% glycerol and 5 mM EDTA containing 1 μg/ml aprotinin, PMSF, leupeptin and pepstatin were 1 mM Sodium Vanadate and 10 mM Iodoacetic acid. Cells were treated with 0.1 mM Pervanadate for 4 hours before lysis. Immunoprecipitations were performed in the vanadate-containing lysis buffer using 1 μg/ml anti-PSTPIP polyclonal antibody and 400 μg of lysate protein at 4° C. overnight. Western blots were performed using 1 μg/ml affinity purified anti-PSTPIP or 1:5000 dilution of commercial 4G10 anti-phosphotyrosine monoclonal (Upstate Biotech). Signal was detected by HRPO-ECL reagents (Pierce). The C221-S mutant was as previously described (Cheng et al., (1996) supra). The PTP HSCF D197-A mutant was generated using PCR. Mutagenesis primer D197A.F ([…]) (SEQ ID NO:24), corresponding to nucleotide 591, and primer D197A.R ([…]) (SEQ ID NO:25) which corresponds to the stop codon, were used in PCR to generate a fragment that could be cut with Mscl and XbaI. pRK.HA.38 WT, a plasmid which encoded the wild type enzyme under the control of the cytomegalovirus promoter (Cheng et al., (1996) supra), was digested with Clal and Mscl and the resulting 600 bp fragment was ligated with the Mscl-Xbal PCR fragment into the Clal and Xbal sites of the pRK.tkneo. A plasmid encoding the V-src oncogene under the control of the SV40 early promoter was the kind gift of Dr. Art Levinson (CEO-Genetech, Inc.). NIH 3T3 cells and the COS-7 cells were cultured in high glucose DMEM supplemented with 10% FBS, 2 mM L-Glutamine, 10 mM HEPES pH 7.2 and pen-strep.
COS-7 cells were transfected by electroporation. Briefly, 1.5×10^6 COS-7 cells were mixed with 24 μg total DNA in PBS and electroporated at 960 μF, […] (Bio-Rad™ Gene Pulsar™). Following electroporation, cells were seeded in 10 cm dishes and incubated for 3 days. 10-cm dishes of transfected COS cells were washed twice with ice-cold PBS, and lysed in 1 ml of M-RIPA (50 mM Tris 7.4, 1% NP40, 0.25% DOC, 150 mM NaCl, 1 mM sodium ortho-vanadate, 1 mM NaF plus Complete™ Protease Inhibitors (Boehringer Mannheim)). Lysates were incubated for 15 minutes with 100 μl UltraLink Immobilized Protein A/G™ (Pierce) at 4° C., followed by centrifugation for 5 minutes. Supernatants were collected and stored at −70° C. or directly immunoprecipitated. 5 μg of M2 or 12CA5 was added to 500 μl of lysate and incubated overnight at 4° C. Ultralink Protein A/G™ was added and incubation continued for 2 hours at 4° C. The immune complexes were washed 3 times with M-RIPA. The proteins were subjected to SDS-PAGE and transferred to nitrocellulose in 1X Transfer Buffer™ (Novex). Immunoblots were blocked overnight at 4° C. in 3% milk/PBS. To detect Flag-tagged PIP, blots were incubated with 10 μg/ml Bio-M2 (Biotinylated anti-FLAG monoclonal Ab, KODAK) followed by incubation in 10 μg/ml streptavidin-HRP (UBI). To detect HA-tagged PTPhscf, blots were incubated in anti-(HA)-peroxidase (Boehringer Mannheim) as per manufacturer's instructions. To detect phosphotyrosine, blots were incubated in HRP-conjugated 4G10 (anti-phosphotyrosine monoclonal, UBI) as per manufacture's instructions.
COS cells were transfected with a constant amount of either the wild type of W232A mutant of PST PIP and cotransfected with increasing amounts of a plasmid encoding the v-Src tyrosine kinase (Spencer et al, (1997), supra). Plasmid concentrations were equalized with an empty vector containing the CMV promoter. After 48 hours, lysates were prepare and immunoprecipitated with anti-FLAG monoclonal antibody. Precipitates were run on SDS polyacrylamide gels, blotted, and probed with either anti-FLAG antibody or anti-phosphotyrosine antibody as previously described (Spencer et al, (1997), supra). Bound antibodies were visualized using enhanced chemiluminescent reagents.

CHO cells = assay: Confocal microscopy of PST PIP forms expressed in CHO cells; type: cell-based, Chinese hamster; settings: transfected CHO cells
Procedure: Confocal microscopy was performed as previously described (Spencer et al, (1997), supra). Briefly, CHO cells in chamber slides were transfected using Lipofectamine and the indicated plasmids. 48 hours later, cells were fixed in formaldehyde and stained with an anti-FLAG epitope specific antibody (Kodak) and Fluorescein-Phalloidin (Molecular Probes). Anti-Flag stained cells were washed and stained with Cy3-conjugated sheep anti-mouse IgG. Stained cells were observed using Molecular Dynamics Confocal Microscope™ (2001) and analyzed with ImageSpace™ software (Molecular Dynamics).

PTP HSCF = molecular target: T1, PTP HSCF (Mus musculus, UniProt Q61152); assay: In vitro GST pull-down binding of PST PIP forms to PTP HSCF; settings: in vitro
T1 construct: the PST (and C-terminal homolog) of PTP HSCF (amino acids 304-453); made in house; host or cells: E. coli DH5-alpha
T1 sequence (Q61152 304-453): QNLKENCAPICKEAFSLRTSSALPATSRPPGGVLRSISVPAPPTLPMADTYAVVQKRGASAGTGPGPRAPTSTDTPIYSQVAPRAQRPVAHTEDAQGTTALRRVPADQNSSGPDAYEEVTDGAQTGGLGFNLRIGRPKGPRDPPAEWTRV
Procedure: The binding was carried out according to the method of Wong and Johnson (Wong et al., J. Biol. Chem. 271(35):20981-20984 (1996)). Briefly, 1 μg of plasmid with either the PSTPIP protein or PTP HSCF under the control of the Sp6 promoter was in vitro transcribed/translated using the Promega™ TnT Rabbit Reticulocyte™ system. Samples were diluted in 50 mM HEPES, pH 7.2, 1% triton X 100, 10% glycerol, 100 mM NaCl, 5 mM EDTA and 2 μg/ml each of leupeptin, pepstatin, aprotinin, and PMSF. […] This was reacted for 1 hour at 4° C. and then the resin washed 6 times in HEPES/Triton binding buffer before SDS gel electrophoresis. The peptides were synthesized on an automated Milligen 9050 Peptide Synthesizer using standard solid phase chemistry with FMOC protected amino acids on a p-alkoxybenzyl alcohol resin. Dried peptides were re-suspended in the HEPES/Triton Binding buffer at a concentration of 10 mg/ml. Peptide inhibition was performed by adding the peptide first to the in vitro translation product and then the GST-fusion followed by the GSH-Sepharose. The binding/washing steps were as previously described. The peptides synthesized and the PTPs they were derived from were: • PXXP-HSCF: 432[…]451 (PTP HSCF) (SEQ ID NO:20), • PXXP-PEP: 782GFGNRFSKPKGPRNPPSAW800 (PTP PEP) (SEQ ID NO:21), • PXXP-PEST: 761[…]780 (PTP PEST) SEQ ID NO:22), • PXXP-CONTROL: 334[…]353 (PTP HSCF) (SEQ ID NO:23).
In vitro binding analyses between various PTP HSCF and PST PIP constructs were performed as previously described (Spencer et al, (1997), supra). Briefly, plasmids were transcribed and translated in vitro using the TnT Rabbit Reticulocyte Lysate System (Promega). Samples were diluted in 50 mM HEPES, pH 7.2, 1% triton X-100, 10% glycerol, 100 mM NaCl, and 2 μg/ml each of leupeptin, pepstatin, aprotinin and PMSF (lysis buffer). Samples were than reacted with GST fusion proteins at various concentrations, and the bound proteins were centrifuged using glutathione-sepharose beads and analyzed on SDS polyacrylamide gels. C-terminally-derived peptide inhibition studies were performed by incubating the GST fusion protein binding reactions in the presence of 10 μg/ml of the indicated peptides. Peptides were produced by FMOC-protected amino acids as previously described (Spencer et al, (1997), supra). In vivo interactions between various forms of PTP HSCF and PST PIP were also performed as previously described (Spencer et al, (1997), supra). Briefly, COS cells were transfected with various constructs, and after 48 hours, lysates were prepared and immunoprecipitated with antibodies to either the FLAG epitope contained at the C-terminus of PST PIP or an HA epitope contained at the N-terminus of PTP HSCF. The resultant blots were probed with anti-FLAG to detect PST PIP, anti-HA to detect PTP HSCF or anti-phosphotyrosine to detect levels of this modified amino acid in each protein.

B1: wild type PTP HSCF: PEST-type protein tyrosine phosphatase PTP HSCF, wild type (protein)
chain: MSRHTDLVRSFLEQLEARDYREGAILAREFSDIKARSVAWKSEGVCSTKAGSRLGNTNKNRYKDVVAYDETRVILSLLQEEGHGDYINANFIRGIDGSQAYIATQGPLPHTLLDFWRLVWEFGVKVILMACQETENGRRKCERYWAREQEPLKAGPFCITLTKETTLNADITLRTLQVTFQKEFRSVHQLQYMSWPDHGVPSSSDHILTMVEEARCLQGLGPGPLCVHCSAGCGRTGVLCAVDYVRQLLLTQTIPPNFSLFQVVLEMRKQRPAAVQTEEQYRFLYHTVAQLFSRTLQDTSPHYQNLKENCAPICKEAFSLRTSSALPATSRPPGGVLRSISVPAPPTLPMADTYAVVQKRGASAGTGPGPRAPTSTDTPIYSQVAPRAQRPVAHTEDAQGTTALRRVPADQNSSGPDAYEEVTDGAQTGGLGFNLRIGRPKGPRDPPAEWTRV
modifications: left off: small tags and cut ends
- level of tyrosine phosphate on PSTPIP on cotransfection of PTP HSCF forms [1]: decreased level of tyrosine phosphate

B2: delta 75: PST PIP missing the N-terminal 75 amino acids (protein)
chain: SFDSLKQQTENVGSAHIQLALALREELRSLEEFRERQKEQRKKYEAIMDRVQKSKLSLYKKTMESKKAYDQKCRDADDAEQAFERVSANGHQKQVEKSQNKAKQCKESATEAERVYRQNIEQLERARTEWEQEHRTTCEAFQLQEFDRLTILRNALWVHCNQLSMQCVKDDELYEEVRLTLEGCDVEGDINGFIQSKSTGREPPAPVPYQNYYDREVTPLIGSPSIQPSCGVIKRFSGLLHGSPKTTPSAPAASTETLTPTPERNELVYASIEVQATQGNLNSSAQDYRALYDYTAQNSDELDISAGDILAVILEGEDGWWTVERNGQRGFVPGSYLEKLDYKDDDDK
- cellular localization of PST PIP forms (assay for correct folding) (CHO cells): formed large aggregates within the cytoplasm

B3: delta 25: PST PIP missing the N-terminal 25 amino acids (protein)
chain: LQRLLDGRKMCKDVEELLRQRAQAEERYGKELVQIARKAGGQTEMNSLRTSFDSLKQQTENVGSAHIQLALALREELRSLEEFRERQKEQRKKYEAIMDRVQKSKLSLYKKTMESKKAYDQKCRDADDAEQAFERVSANGHQKQVEKSQNKAKQCKESATEAERVYRQNIEQLERARTEWEQEHRTTCEAFQLQEFDRLTILRNALWVHCNQLSMQCVKDDELYEEVRLTLEGCDVEGDINGFIQSKSTGREPPAPVPYQNYYDREVTPLIGSPSIQPSCGVIKRFSGLLHGSPKTTPSAPAASTETLTPTPERNELVYASIEVQATQGNLNSSAQDYRALYDYTAQNSDELDISAGDILAVILEGEDGWWTVERNGQRGFVPGSYLEKLDYKDDDDK
- binding of in vitro translated PST PIP forms to GST fusion of C-terminal 149 amino acids of PTP HSCF (PTP HSCF): capable of interacting
- cellular localization of PST PIP forms (assay for correct folding) (CHO cells): predominantly co-localized with the cortical actin cytoskeleton

B4: delta 50: PST PIP missing the N-terminal 50 amino acids (protein)
chain: ERYGKELVQIARKAGGQTEMNSLRTSFDSLKQQTENVGSAHIQLALALREELRSLEEFRERQKEQRKKYEAIMDRVQKSKLSLYKKTMESKKAYDQKCRDADDAEQAFERVSANGHQKQVEKSQNKAKQCKESATEAERVYRQNIEQLERARTEWEQEHRTTCEAFQLQEFDRLTILRNALWVHCNQLSMQCVKDDELYEEVRLTLEGCDVEGDINGFIQSKSTGREPPAPVPYQNYYDREVTPLIGSPSIQPSCGVIKRFSGLLHGSPKTTPSAPAASTETLTPTPERNELVYASIEVQATQGNLNSSAQDYRALYDYTAQNSDELDISAGDILAVILEGEDGWWTVERNGQRGFVPGSYLEKLDYKDDDDK
- cellular localization of PST PIP forms (assay for correct folding) (CHO cells): formed large aggregates within the cytoplasm

B5: D197-A: dominant negative PTP HSCF, active site aspartate mutated to alanine (protein, UniProt Q99952 1-460, looked up, variant D197A)
Tyrosine-protein phosphatase …: MSRSLDSARSFLERLEARGGREGAVLAGEFSDIQACSAAWKADGVCSTVAGSRPENVRKNRYKDVLPYDQTRVILSLLQEEGHSDYINGNFIRGVDGSLAYIATQGPLPHTLLDFWRLVWEFGVKVILMACREIENGRKRCERYWAQEQEPLQTGLFCITLIKEKWLNEDIMLRTLKVTFQKESRSVYQLQYMSWPARGVPSSPDHMLAMVEEARRLQGSGPEPLCVHCSAGCGRTGVLCTVDYVRQLLLTQMIPPDFSLFDVVLKMRKQRPAAVQTEEQYRFLYHTVAQMFCSTLQNASPHYQNIKENCAPLYDDALFLRTPQALLAIPRPPGGVLRSISVPGSPGHAMADTYAVVQKRGAPAGAGSGTQTGTGTGTGARSAEEAPLYSKVTPRAQRPGAHAEDARGTLPGRVPADQSPAGSGAYEDVAGGAQTGGLGFNLRIGRPKGPRDPPAEWTRV
- level of tyrosine phosphate on PSTPIP on cotransfection of PTP HSCF forms [1]: slightly more efficient dominant negative protein
